# Assay results as given in patent US20180021429A1, “ANTICANCER AGENTS OR ANTIMETASTATIC AGENTS USING FSTL1 AND COMBINATION DRUG THEREOF” (PHARMA FOODS INTERNATIONAL CO., LTD., priority 2015, published 2018).
# “Also recorded” adds a separate entry of the source.
# T1: FSTL1 (Homo sapiens, UniProt Q12841)
# T1 sequence (Q12841 21-308): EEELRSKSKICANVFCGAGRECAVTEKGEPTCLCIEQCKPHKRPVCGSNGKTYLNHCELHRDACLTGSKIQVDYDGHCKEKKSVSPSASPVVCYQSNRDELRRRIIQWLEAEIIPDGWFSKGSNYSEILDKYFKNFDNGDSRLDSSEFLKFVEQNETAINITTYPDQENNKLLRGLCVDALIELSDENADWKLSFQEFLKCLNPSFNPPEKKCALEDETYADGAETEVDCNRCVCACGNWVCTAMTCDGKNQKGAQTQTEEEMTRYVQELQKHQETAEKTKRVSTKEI
# B1: #6-55: chicken-mouse chimeric anti-FSTL1 antibody clone; variable regions SEQ ID NO: 783 (light), 785 (heavy) (antibody, V domains shown)
# VH: AVTLDESGGGLQTPGGALSLVCKGSGFTFTSVTMQWVRQAPGKGLEWVASVCSGSSTYYAPAVKGRATISRDNGQSTVRLQLSNLRPEDTGTYYCAKIAGRARWSCTSAAYNIDAWGHGTEVIVSS
# VL: ASTQPSSVSAIPGETVKITCSGGGNNYGWYQQRSPGSAPVTVIYYNDNRPSNIPSRFSGSTSGSTSTLTITGVQADDEAIYYCGSWDSNTDSGIFGAGTTLTVL
# modifications: mouse constant regions
# How the values were obtained:
# [1] = tested on: mouse colorectal cancer CT26 cells; assay: In vivo, mouse colorectal cancer CT26 cell-transplanted model (Example 20); conditions: intraperitoneal 10 mg/kg on days 4 and 7
# Experimental: (§1) Procedures and methods of the experiment were basically performed under substantially the same conditions as in the bone metastasis model experiments of Examples 17 to 19 except that bone metastasis was not evaluated. Specifically, drug efficacy evaluation was conducted using mouse tumor models other than Snail-positive tumor bone metastasis models. The drug efficacy of the anti-FSTL1 antibody was evaluated using cancer-bearing models of BALB/c mice different in strain from the C57BL/6 mice used in the preceding tests. The test was conducted by changing only the amount of tumor implanted, antibody administration timing, and assay timing. • Day 0: transplantation of tumor cells (5×10^5 cells subcutaneously & 5×10^5 cells intravenously) Days 4 and 7: intraperitoneal administration of the antibody (10 mg/kg) • Day 14: drug efficacy evaluation (subcutaneous tumor growth (FIG. 44A) and lung metastasis (FIG. 44B))
# (§2) For lung metastasis, the number of metastatic nodules in the lung was macroscopically counted. The tumor volumes of the mice were measured 7, 11, and 14 days after tumor implantation.
# as §1, with “intravenously) •” for “intravenously)”, “76A)” for “44A)”, “76B))” for “44B))”
# [2] = tested on: mouse breast cancer 4T1 cells; assay: In vivo, mouse breast cancer 4T1 cell-transplanted model (Example 21); conditions: BALB/c mice; intraperitoneal 10 mg/kg on days 4 and 7
# Experimental: as §1, with “performed according to Examples 17 to 20” for “performed”, “20. Drug” for “19 except that bone metastasis was not evaluated. Specifically, drug”, “Changes were made as follows.” for “The test was conducted by changing only the amount of tumor implanted, antibody administration timing, and assay timing.”, “growth)” for “growth (FIG. 44A) and lung metastasis (FIG. 44B))”
# The tumor volumes of the mice were measured 4, 7, 11, and 14 days after tumor implantation.
# [3] = target: T1, FSTL1; assay: Ability of FSTL1-induced MSCs from mouse bone marrow cells to differentiate into adipocytes (Examples 14, 16); assay type: cell-based; set-up: purchased R&D Systems, Inc. 1694-FN-050; conditions: Example 16; antibody doses as in Example 15
# Experimental: The antibody clone (#6-55, #7, […], #13, or #22) was evaluated for its activity by the same testing method as in Example 13. #6-55 was set as a positive control for activity. […] Mouse bone marrow cells were supplemented with FSTL1 and the predetermined concentration of each antibody and cultured for 8 days. 5×10^4 cells/well were separated from each culture system and evaluated for the ability to differentiate into adipocytes using an adipocyte differentiation reagent included in “Mesenchymal Stem Cell Functional Identification Kit (R&D Systems, Inc., Cat. No. SCO10)”. For the evaluation method, the cells were supplemented with the adipocyte differentiation reagent and cultured for 8 days. Then, adipocytes per culture system were counted under a microscope for evaluation. […]
# In the same way as in Example 15, mouse bone marrow cells were supplemented with FSTL1 and the predetermined concentration of each antibody and cultured for 8 days. 5×10^4 cells/well were separated from each culture system and evaluated for the ability to differentiate into adipocytes using an adipocyte differentiation reagent included in “Mesenchymal Stem Cell Functional Identification Kit (R&D Systems, Inc., Cat. No. SC010)”. […] Then, adipocytes per culture system were counted under a microscope for evaluation (FIG. 40B). […]
# [4] = tested on: mouse colorectal cancer CT26 cell-transplanted models; assay: In vivo colorectal cancer model (Example 20); set-up: species or system BALB/c mice; conditions: intraperitoneal 10 mg/kg on days 4 and 7
# Experimental: as §1, with “14A)” for “44A)”, “14B))” for “44B))”
# as §2
molecule,measurement,setting,value
B1,growth of CT26 subcutaneous tumor,[1]; BALB/c mice,very strongly suppressed
same,lung metastasis of CT26 tumor,"[1]; BALB/c mice, day 14",very strongly suppressed
same,mice in which solid tumor disappeared,[1]; n=5,three out of the five mice
same,growth of 4T1 subcutaneous tumor,[2],significantly suppressed
same,cells differentiating into adipocytes / induction of MSCs having the ability to differentiate into adipocytes,[3],decreased in number by the addition of #6-55 in a dose-dependent manner; also recorded: inhibited by 46-55 in an antibody dose-dependent manner; also recorded: inhibited by #6-55 in an antibody dose-dependent manner
same,growth and lung metastasis of CT26 subcutaneous tumor,[4]; day 14,very strongly suppressed the growth and lung metastasis of CT26 subcutaneous tumor
same,solid tumor disappearance (mice),[4]; n=5,three out of the five mice
